Source: US20230094463A1, “ANTIBODIES THAT DISRUPT THE INTERACTION OF GAL3 AND INSULIN RECEPTOR OR INTEGRINS AND METHODS OF USE THEREOF” (TrueBinding, Inc., priority 2019, published 2023)

B1: 15F10.2D6 (antibody, V domains shown)
VH: EVQLVESGGGLVKPGGSLKLSCAASGFAFSSYAMSWVRQTPEKRLEWVATISDGGVYTYYTDHVKGRFTISRDNAEDNLYLQMSHLKSEDTAMYYCVRDGGYWGQGTTLTVSS
VL: DVLMTQTPLSLPVSLGDQASISCRSSQSIVHNNGNTYLEWYLQKPGQSPKLLIYKVSNRFSGVPDRFSGSGSGTDFTLKISRVEAEDLGVYYCFQGSHVPLTFGGGTKLELK
B2: F846TC.14E4 (antibody, V domains shown)
VH: QVTLKESGPGILQPSQTLSLTCSFSGFSLSTSGMGVGWIRQPSGKGLEWLAHIWWDDDKYYNTALKSGLTISKDASKNQVFLKIASMDTADTATYYCARNLYDGSYGYYAMDYWGQGTSVTVSS
VL: DIVMTQAAFSNPVTLGTSASISCRSSKSLLHTNGITFLYWYLQKPGQSPQPLIYQMSNLASGVPDRFSSSGSGTDFTLRISRVEAEDVGVYYCAQNLELPWTFGGGTKLEINR
B3: 7D8.2D8 (antibody, V domains shown)
VH: EVQLVESGGGLVKPGGSLKLSCAASGFTFSSYAMSWVRQTPEKRLEWVATISDGGIYTYYPDNVKGRFTISRDNAKNNLFLQMSHLKSEDTAMYYCVRDGGYWGQGTTLTVSS
VL: DVLMTQTPLSLPVSLGDQASISCRSSQSIVHSNGNTYLEWYLQKPGQSPKLLIYKVSNRFSGVPDRFSGSGSGTDFTLKISRVEAEDLGVYYCFQGSHVPLTFGAGTKLELK
B4: F849C.8D10 (antibody, V domains shown)
VH: QVQLQQTGAELVKPGASVKLSCKASGYTFTSYWINWVKQRPGQGLEWIGNIYPGSSSIYYSEKFKSKATLTVDTSSSTAYMQLSSLTSDDSAVYYCARWGYWGQGTTLTVSS
VL: DVLMTQTPLSLPVSLGDQASISCRSSQDIVHSSGNTYLEWYLQKPGQSLKLLIYKVSNRFSGVPDRFSASGSGTDFTLKISRVEAEDLGVYYCFQGSHVPPTFGSGTKLEIKR

Legend:
[1] = target: Human GAL3 protein (TrueBinding, QCB200349 / QCB200352; R&D Systems, 8259-GA) (human) (UniProt P17931); assay: cell-based or functional assay
[2] = target: Human GAL3 protein (TrueBinding, QCB200349 / QCB200352; R&D Systems, 8259-GA) (human) (UniProt P17931); assay: blocking ELISA (GAL3 coated; antibody + biotinylated ITGa3)
[3] = target: Human GAL3 protein (TrueBinding, QCB200349 / QCB200352; R&D Systems, 8259-GA) (human) (UniProt P17931); assay: blocking ELISA (GAL3 coated; antibody + biotinylated ITGb1)
[4] = target: Human GAL3 protein (TrueBinding, QCB200349 / QCB200352; R&D Systems, 8259-GA) (human) (UniProt P17931); assay: blocking ELISA (GAL3 coated; antibody + biotinylated ITGb3)
[5] = target: Human GAL3 protein (TrueBinding, QCB200349 / QCB200352; R&D Systems, 8259-GA) (human) (UniProt P17931); assay: blocking ELISA (GAL3 coated; antibody + biotinylated ITGaV)
Throughout, for inhibition of Jurkat T cell adhesion: test concentration or dose not given here.

Sequence of Human GAL3 protein (TrueBinding, QCB200349 / QCB200352; R&D Systems, 8259-GA) (human) (P17931 2-250 limits assumed): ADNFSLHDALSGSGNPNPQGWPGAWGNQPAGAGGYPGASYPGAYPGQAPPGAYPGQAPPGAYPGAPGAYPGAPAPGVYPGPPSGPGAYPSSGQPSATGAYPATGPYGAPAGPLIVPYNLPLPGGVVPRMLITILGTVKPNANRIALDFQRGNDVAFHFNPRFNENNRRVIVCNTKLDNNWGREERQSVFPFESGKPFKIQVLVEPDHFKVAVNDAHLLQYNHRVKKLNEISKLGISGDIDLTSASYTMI

Row | Binder | inhibition of Jurkat T cell adhesion [1] | percent blockade of GAL3-ITGa3 interaction [2] | percent blockade of GAL3-ITGb1 interaction [3] | percent blockade of GAL3-ITGb3 interaction [4] | percent blockade of GAL3-ITGaV interaction [5]
1 | B1 | 40 to 80% | > 90% | 40 to 60% | – | –
2 | B2 | 40 to 80% | > 90% | – | > 90% | –
3 | B3 | 40 to 80% | > 90% | 40 to 60% | – | –
4 | B4 | – | – | – | – | > 90%
